B1: Azoarcus group I ribozyme (parent)
chain: GUGCCUUGCGCCGGGAAACCACGCAAGGGAUGGUGUCAAAUUCGGCGAAACCUAAGCGCCCGCCCGGGCGUAUGGCAACGCCGAGCCAAGCUUCGGCGCCUGCGCCGAUGAAGGUGUAGAGACUAGACGGCACCCACCUAAGGCAAACGCUAUGGUGAAGGCAUAGUCCAGGGAGUGGCGAAAGUCACACAAACCGG

Variants of: B1
Experiment: reverse-splicing fitness (ratio to wild type); higher = more active; in vitro selection; Mg2+ level not given
Method in brief: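 An in vitro group I ribozyme library with randomized positions was T7-transcribed and gel-purified. In triplicate, 10 pmol RNA in EPPS pH 7.5 was reacted with 50 pmoles of a 30-nt RNA substrate for 1 h at 37 °C across several added MgCl2 levels (1–48 mM), then stopped with EDTA. Products were reverse transcribed from a substrate-complementary primer, PCR-amplified and sequenced (HiSeq 4000). Fitness is a variant's read proportion after selection over that before, normalised to wild type.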

Variant	reverse-splicing fitness
GUGCCUUGCGCCGGGAAACCACGCAAGGGAUGGUGUCAAAUUCGGCGAAACCUAAGCGCCCGCCCGGGCGUAUGGCAACGCCGAGCCAAGCUUCGGCGCCUGCGCCGAUGGAGGUGUAGAGACUAGACGGCACCCACCUAAGGCUAACGUUAUGGUGAAGGCAUAGUCAAGGGAGGGGCGAAAGUCACACAAACCGG [A111G A145U C150U C169A U176G]	0.00557
GUGCCUUGCGCCGGGAAACCACGCAAGGGAUGGUGUCAAAUUCGGCGAAACCUAAGCGCCCGCCCGGGCGUAUGGCAACGCCGAGCCAAGCUUCGGCGCCUGCGCCGAUGGAGGUGUAGAGACUAGACGGCACCCACCUAAGGCUAACGUUAUGGUGAAGGCAUAGUCAAGGGAGAGGCGAAAGUCACACAAACCGG [A111G A145U C150U C169A U176A]	0.0142
GUGCCUUGCGCCGGGAAACCACGCAAGGGAUGGUGUCAAAUUCGGCGAAACCUAAGCGCCCGCCCGGGCGUAUGGCAACGCCGAGCCAAGCUUCGGCGCCUGCGCCGAUGGAGGUGUAGAGACUAGACGGCACCCACCUAAGGCUAACGUUAUGGUGAAGGCAUAGUCAAGGGAGCGGCGAAAGUCACACAAACCGG [A111G A145U C150U C169A U176C]	0.0144
GUGCCUUGCGCCGGGAAACCACGCAAGGGAUGGUGUCAAAUUCGGCGAAACCUAAGCGCCCGCCCGGGCGUAUGGCAACGCCGAGCCAAGCUUCGGCGCCUGCGCCGAUGGAGGUGUAGAGACUAGACGGCACCCACCUAAGGCUAACGGUAUGGUGAAGGCAUAGUCAAGGGAGGGGCGAAAGUCACACAAACCGG [A111G A145U C150G C169A U176G]	0.00461
GUGCCUUGCGCCGGGAAACCACGCAAGGGAUGGUGUCAAAUUCGGCGAAACCUAAGCGCCCGCCCGGGCGUAUGGCAACGCCGAGCCAAGCUUCGGCGCCUGCGCCGAUGGAGGUGUAGAGACUAGACGGCACCCACCUAAGGCUAACGGUAUGGUGAAGGCAUAGUCAAGGGAGCGGCGAAAGUCACACAAACCGG [A111G A145U C150G C169A U176C]	0.00907
GUGCCUUGCGCCGGGAAACCACGCAAGGGAUGGUGUCAAAUUCGGCGAAACCUAAGCGCCCGCCCGGGCGUAUGGCAACGCCGAGCCAAGCUUCGGCGCCUGCGCCGAUGGAGGUGUAGAGACUAGACGGCACCCACCUAAGGCUAACGGUAUGGUGAAGGCAUAGUCAAGGGAGAGGCGAAAGUCACACAAACCGG [A111G A145U C150G C169A U176A]	0.00932
GUGCCUUGCGCCGGGAAACCACGCAAGGGAUGGUGUCAAAUUCGGCGAAACCUAAGCGCCCGCCCGGGCGUAUGGCAACGCCGAGCCAAGCUUCGGCGCCUGCGCCGAUGGAGGUGUAGAGACUAGACGGCACCCACCUAAGGCUAACGUUAUGGUGAAGGCAUAGUCAAGGGAGUGGCGAAAGUCACACAAACCGG [A111G A145U C150U C169A]	0.0341
GUGCCUUGCGCCGGGAAACCACGCAAGGGAUGGUGUCAAAUUCGGCGAAACCUAAGCGCCCGCCCGGGCGUAUGGCAACGCCGAGCCAAGCUUCGGCGCCUGCGCCGAUGGAGGUGUAGAGACUAGACGGCACCCACCUAAGGCUAACGUUAUGGUGAAGGCAUAGUCUAGGGAGUGGCGAAAGUCACACAAACCGG [A111G A145U C150U C169U]	0.132
GUGCCUUGCGCCGGGAAACCACGCAAGGGAUGGUGUCAAAUUCGGCGAAACCUAAGCGCCCGCCCGGGCGUAUGGCAACGCCGAGCCAAGCUUCGGCGCCUGCGCCGAUGGAGGUGUAGAGACUAGACGGCACCCACCUAAGGCUAACGUUAUGGUGAAGGCAUAGUCGAGGGAGUGGCGAAAGUCACACAAACCGG [A111G A145U C150U C169G]	0.0749
GUGCCUUGCGCCGGGAAACCACGCAAGGGAUGGUGUCAAAUUCGGCGAAACCUAAGCGCCCGCCCGGGCGUAUGGCAACGCCGAGCCAAGCUUCGGCGCCUGCGCCGAUGGAGGUGUAGAGACUAGACGGCACCCACCUAAGGCUAACGUUAUGGUGAAGGCAUAGUCGAGGGAGAGGCGAAAGUCACACAAACCGG [A111G A145U C150U C169G U176A]	0.0215
GUGCCUUGCGCCGGGAAACCACGCAAGGGAUGGUGUCAAAUUCGGCGAAACCUAAGCGCCCGCCCGGGCGUAUGGCAACGCCGAGCCAAGCUUCGGCGCCUGCGCCGAUGGAGGUGUAGAGACUAGACGGCACCCACCUAAGGCUAACGUUAUGGUGAAGGCAUAGUCGAGGGAGCGGCGAAAGUCACACAAACCGG [A111G A145U C150U C169G U176C]	0.0325
GUGCCUUGCGCCGGGAAACCACGCAAGGGAUGGUGUCAAAUUCGGCGAAACCUAAGCGCCCGCCCGGGCGUAUGGCAACGCCGAGCCAAGCUUCGGCGCCUGCGCCGAUGGAGGUGUAGAGACUAGACGGCACCCACCUAAGGCUAACGUUAUGGUGAAGGCAUAGUCGAGGGAGGGGCGAAAGUCACACAAACCGG [A111G A145U C150U C169G U176G]	0.0059
GUGCCUUGCGCCGGGAAACCACGCAAGGGAUGGUGUCAAAUUCGGCGAAACCUAAGCGCCCGCCCGGGCGUAUGGCAACGCCGAGCCAAGCUUCGGCGCCUGCGCCGAUGGAGGUGUAGAGACUAGACGGCACCCACCUAAGGCUAACGGUAUGGUGAAGGCAUAGUCGAGGGAGAGGCGAAAGUCACACAAACCGG [A111G A145U C150G C169G U176A]	0.00712
GUGCCUUGCGCCGGGAAACCACGCAAGGGAUGGUGUCAAAUUCGGCGAAACCUAAGCGCCCGCCCGGGCGUAUGGCAACGCCGAGCCAAGCUUCGGCGCCUGCGCCGAUGGAGGUGUAGAGACUAGACGGCACCCACCUAAGGCUAACGGUAUGGUGAAGGCAUAGUCGAGGGAGGGGCGAAAGUCACACAAACCGG [A111G A145U C150G C169G U176G]	0.00482
GUGCCUUGCGCCGGGAAACCACGCAAGGGAUGGUGUCAAAUUCGGCGAAACCUAAGCGCCCGCCCGGGCGUAUGGCAACGCCGAGCCAAGCUUCGGCGCCUGCGCCGAUGGAGGUGUAGAGACUAGACGGCACCCACCUAAGGCUAACGGUAUGGUGAAGGCAUAGUCGAGGGAGCGGCGAAAGUCACACAAACCGG [A111G A145U C150G C169G U176C]	0.00501

From the RNAGym collection of RNA variant scans (doi:10.1093/molbev/msab373)
